US20240116985A1, “STAPLED PEPTIDES AND METHODS THEREOF” (priority 2020, published 2024)
Starred links: 1 amine or outer side, 2 acyl side, 3 side chain; linkers in the order of their positions; H or OH if unused. Positions of bridges follow the written chain, without caps; N, C: chain ends. Non-standard residues stand in square brackets, D forms with d. Primed or numbered codes have the meaning given here. PyrS2(3) = (S)-3-amino-1-((pent-4-en-1-yloxy)carbonyl)pyrrolidine-3-carboxylic acid, stapling residue, C=CCCCOC(=O)N1CC[C@@](N[*:1])(C(=O)[*:2])C1; PyrS2″ = (S)-3-amino-1-((pent-4-en-1-yloxy)carbonyl)pyrrolidine-3-carboxylic acid (stapling residue), C=CCCCOC(=O)N1CC[C@@](N[*:1])(C(=O)[*:2])C1; B5(4) = 2,2-bis(4-pentenyl)glycine = 2-amino-2-(pent-4-en-1-yl)hept-6-enoic acid (stitching residue), C=CCCCC(CCCC=C)(N[*:1])C(=O)[*:2]; B5(5) = 2,2-bis(4-pentenyl)glycine, 2-amino-2-(pent-4-en-1-yl)hept-6-enoic acid (stitching residue), C=CCCCC(CCCC=C)(N[*:1])C(=O)[*:2]; B5(21) = 2-amino-2-(pent-4-en-1-yl)hept-6-enoic acid, bis(4-pentenyl)glycine (stitching residue), C=CCCCC(CCCC=C)(N[*:1])C(=O)[*:2]; PyrS2 = (S)-3-amino-1-((pent-4-en-1-yloxy)carbonyl)pyrrolidine-3-carboxylic acid, C=CCCCOC(=O)N1CC[C@@](N[*:1])(C(=O)[*:2])C1; B5(12) = 2-amino-2-(pent-4-en-1-yl)hept-6-enoic acid (two olefin side chains), C=CCCCC(CCCC=C)(N[*:1])C(=O)[*:2]; B5(22) = 2-amino-2-(pent-4-en-1-yl)hept-6-enoic acid (two alkene side chains), C=CCCCC(CCCC=C)(N[*:1])C(=O)[*:2]; 4TriA = (S)-2-amino-3-(1H-1,2,3-triazol-4-yl)propanoic acid, O=C([C@H](Cc1c[nH]nn1)N[*:1])[*:2]; B5(3) = 2,2-bis(4-pentenyl)glycine (stitching residue), C=CCCCC(CCCC=C)(N[*:1])C(=O)[*:2]; B5″ = 2,2-bis(4-pentenyl)glycine, stitching residue, C=CCCCC(CCCC=C)(N[*:1])C(=O)[*:2]; B5 = 2-amino-2-(pent-4-en-1-yl)hept-6-enoic acid, C=CCCCC(CCCC=C)(N[*:1])C(=O)[*:2]; Trp(1-Me) = Cn1cc(C[C@H](N)C(=O)O)c2ccccc21; Ala(4-thiazolyl) = N[C@@H](Cc1cscn1)C(=O)O; Phe(2-Cl) = N[C@@H](Cc1ccccc1Cl)C(=O)O; Bta = N[C@@H](Cc1csc2ccccc12)C(=O)O; αAllylPro = C=CC[C@@]1(C(=O)O)CCCN1; tBuAla = CC(C)(C)C[C@H](N)C(=O)O; 3Thi = N[C@@H](Cc1ccsc1)C(=O)O; S8 = C=CCCCCCC[C@](C)(N)C(=O)O; R5 = C=CCCC[C@@](C)(N)C(=O)O; hSer = N[C@@H](CCO)C(=O)O; Nle = CCCC[C@H](N)C(=O)O; Aib = CC(C)(N)C(=O)O

Biological target: full-length beta-Catenin (Uniprot ID P35222) (Homo sapiens (Human)) (UniProt P35222)
Assay: fluorescence polarization competition; 10 nM full-length beta-catenin with 10 nM 5FAM-TCF4(10-53) probe as competitor
Target sequence in this assay (P35222 2-781 limits assumed): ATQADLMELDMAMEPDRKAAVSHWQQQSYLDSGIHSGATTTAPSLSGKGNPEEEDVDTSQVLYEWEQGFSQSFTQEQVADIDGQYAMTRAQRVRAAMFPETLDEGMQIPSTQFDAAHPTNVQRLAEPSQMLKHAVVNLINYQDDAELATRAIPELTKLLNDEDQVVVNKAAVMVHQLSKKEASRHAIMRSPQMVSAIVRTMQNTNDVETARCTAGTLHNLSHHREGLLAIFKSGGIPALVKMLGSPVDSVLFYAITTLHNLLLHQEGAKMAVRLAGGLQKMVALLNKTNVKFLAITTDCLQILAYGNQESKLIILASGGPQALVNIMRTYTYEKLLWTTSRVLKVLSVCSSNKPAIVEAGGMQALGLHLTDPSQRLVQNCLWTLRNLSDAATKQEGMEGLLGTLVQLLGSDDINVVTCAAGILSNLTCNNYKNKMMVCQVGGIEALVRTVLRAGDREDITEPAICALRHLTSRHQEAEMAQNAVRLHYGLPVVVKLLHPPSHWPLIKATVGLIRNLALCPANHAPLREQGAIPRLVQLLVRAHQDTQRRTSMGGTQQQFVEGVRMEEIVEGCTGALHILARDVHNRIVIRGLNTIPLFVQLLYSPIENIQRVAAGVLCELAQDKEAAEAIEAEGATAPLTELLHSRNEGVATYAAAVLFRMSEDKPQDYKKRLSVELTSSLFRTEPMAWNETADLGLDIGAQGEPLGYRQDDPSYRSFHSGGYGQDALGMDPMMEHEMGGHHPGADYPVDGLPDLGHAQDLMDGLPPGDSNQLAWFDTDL

Row | Binder | IC50 [nM]
1 | Ac-[αAllylPro]D[tBuAla][B5(4)]DDAA[Ala(4-thiazolyl)]N[PyrS2″][3Thi][Bta]Q-NH2 (staple 1-4, 4-11) [I-812] | 33
2 | Ac-[αAllylPro]D[tBuAla][B5]DDAAFN[PyrS2″][3Thi][Bta]T-NH2 (staple 1-4, 4-11) [I-814] | 7
3 | Ac-[αAllylPro]D[tBuAla][B5]DDAAFN[PyrS2″][3Thi][Bta]N-NH2 (staple 1-4, 4-11) [I-816] | 5

Next, values leading:

Row | IC50 [nM] | Binder
4 | 5 | Ac-[αAllylPro]D[tBuAla][B5(3)]DDAAFT[PyrS2″][3Thi][Bta]Q-NH2 (staple 1-4, 4-11) [I-809]
5 | 6 | Ac-[αAllylPro]D[tBuAla][B5(4)]DDAAFT[PyrS2″][3Thi][Bta]H-NH2 (staple 1-4, 4-11) [I-810]
6 | 7 | Ac-[αAllylPro]D[tBuAla][B5]DDAAFN[PyrS2″][3Thi][Bta][dH]-NH2 (staple 1-4, 4-11) [I-813]
7 | 5 | Ac-[αAllylPro]D[tBuAla][B5]DDAAFN[PyrS2″][3Thi][Bta]S-NH2 (staple 1-4, 4-11) [I-815]

Biological target: full-length beta-Catenin (Uniprot ID P35222) (Homo sapiens (Human)) (UniProt P35222)
Assay: fluorescence polarization competition; 5FAM-TCF4(10-53) probe displaced from full-length beta-catenin
Target sequence in this assay (P35222 2-781 limits assumed): as above

Row | Binder | IC50 [nM]
8 | Ac-[αAllylPro]DT[B5(5)]DDAAFL[PyrS2″][3Thi][Bta]L-NH2 (staple 1-4, 4-11) [I-1415] | 72
9 | Ac-[αAllylPro]D[tBuAla][B5(5)]DDAAFL[PyrS2″][Phe(2-Cl)][Bta]L-NH2 (staple 1-4, 4-11; also: staple isomer, earlier eluting HPLC peak) [I-1416] | 57
10 | Ac-[αAllylPro]D[Nle][B5(5)]DDAAFL[PyrS2″][Phe(2-Cl)][Bta]L-NH2 (staple 1-4, 4-11; also: staple isomer, earlier eluting HPLC peak) [I-1420] | 124
11 | Ac-[αAllylPro]D[Nle][B5(5)]DDAAFL[PyrS2″][Phe(2-Cl)][Bta]L-NH2 (staple 1-4, 4-11; also: staple isomer of later HPLC peak) [I-1421] | 134
12 | Ac-[αAllylPro]D[tBuAla][B5(22)]DDAAFL[PyrS2][3Thi]WS-NH2 (staple 1-4, 4-11) [I-1432] | 27
13 | Ac-[αAllylPro]D[tBuAla][B5(22)]DDAAFL[PyrS2][3Thi][Trp(1-Me)]S-NH2 (staple 1-4, 4-11) [I-1434] | 83

The remaining lines, values ahead:

Row | IC50 [nM] | Binder
14 | 84 | Ac-[αAllylPro]DS[B5(12)]DDAAFL[PyrS2″][3Thi][Bta]L-NH2 (staple 1-4, 4-11) [I-1414]
15 | 198 | Ac-[αAllylPro]D[tBuAla][B5(5)]DDAAFL[PyrS2″][Phe(2-Cl)][Bta]L-NH2 (staple 1-4, 4-11) [I-1417]
16 | 44 | Ac-[αAllylPro]D[tBuAla][B5(22)]DDAAFL[PyrS2][3Thi]WQ-NH2 (staple 1-4, 4-11) [I-1431]
17 | 71 | Ac-[αAllylPro]D[tBuAla][B5(22)]DDAAFL[PyrS2][3Thi][Trp(1-Me)]Q-NH2 (staple 1-4, 4-11) [I-1433]

Biological target: beta-catenin (Homo sapiens (Human)) (UniProt P35222)
Sequence (P35222 whole entry): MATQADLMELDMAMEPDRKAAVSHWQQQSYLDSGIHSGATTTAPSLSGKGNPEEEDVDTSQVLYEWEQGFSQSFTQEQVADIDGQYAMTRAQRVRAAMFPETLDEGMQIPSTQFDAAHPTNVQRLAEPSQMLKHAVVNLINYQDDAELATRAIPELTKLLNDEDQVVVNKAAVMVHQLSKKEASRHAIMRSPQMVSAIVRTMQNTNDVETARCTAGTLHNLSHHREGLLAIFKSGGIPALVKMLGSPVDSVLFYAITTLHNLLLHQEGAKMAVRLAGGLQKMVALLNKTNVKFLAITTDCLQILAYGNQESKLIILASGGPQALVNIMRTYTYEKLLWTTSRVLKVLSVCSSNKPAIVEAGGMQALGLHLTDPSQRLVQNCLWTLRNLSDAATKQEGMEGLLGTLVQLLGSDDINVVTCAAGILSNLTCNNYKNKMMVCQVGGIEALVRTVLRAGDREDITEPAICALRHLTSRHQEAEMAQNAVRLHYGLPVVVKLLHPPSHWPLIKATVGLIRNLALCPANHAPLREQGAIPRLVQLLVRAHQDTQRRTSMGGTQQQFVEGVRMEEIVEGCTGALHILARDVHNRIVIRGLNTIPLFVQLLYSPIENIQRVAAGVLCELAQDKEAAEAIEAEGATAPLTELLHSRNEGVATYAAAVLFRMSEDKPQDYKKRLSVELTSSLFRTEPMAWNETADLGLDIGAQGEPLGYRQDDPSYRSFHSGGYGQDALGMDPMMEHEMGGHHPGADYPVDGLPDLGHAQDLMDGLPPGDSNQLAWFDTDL
Assay: fluorescence polarization competition; full-length beta-catenin with 5FAM-TCF4(10-53) probe as competitor

Row | Binder | EC50 [nM]
18 | Ac-[αAllylPro]DT[B5(5)]DDAAFL[PyrS2″][3Thi][Bta]L-NH2 (staple 1-4, 4-11) [I-1415] | 72
19 | Ac-[αAllylPro]D[tBuAla][B5(5)]DDAAFL[PyrS2″][Phe(2-Cl)][Bta]L-NH2 (staple 1-4, 4-11; also: staple isomer, earlier eluting HPLC peak) [I-1416] | 57
20 | Ac-[αAllylPro]D[Nle][B5(5)]DDAAFL[PyrS2″][Phe(2-Cl)][Bta]L-NH2 (staple 1-4, 4-11; also: staple isomer, earlier eluting HPLC peak) [I-1420] | 124
21 | Ac-[αAllylPro]D[Nle][B5(5)]DDAAFL[PyrS2″][Phe(2-Cl)][Bta]L-NH2 (staple 1-4, 4-11; also: staple isomer of later HPLC peak) [I-1421] | 134
22 | Ac-[αAllylPro]D[tBuAla][B5(22)]DDAAFL[PyrS2][3Thi]WS-NH2 (staple 1-4, 4-11) [I-1432] | 27
23 | Ac-[αAllylPro]D[tBuAla][B5(22)]DDAAFL[PyrS2][3Thi][Trp(1-Me)]S-NH2 (staple 1-4, 4-11) [I-1434] | 83

Further lines, results first:

Row | EC50 [nM] | Binder
24 | 84 | Ac-[αAllylPro]DS[B5(12)]DDAAFL[PyrS2″][3Thi][Bta]L-NH2 (staple 1-4, 4-11) [I-1414]
25 | 198 | Ac-[αAllylPro]D[tBuAla][B5(5)]DDAAFL[PyrS2″][Phe(2-Cl)][Bta]L-NH2 (staple 1-4, 4-11) [I-1417]
26 | 34 | Ac-[αAllylPro]D[tBuAla][B5(22)]DDAAFL[PyrS2][3Thi]WQ-NH2 (staple 1-4, 4-11) [I-1431]
27 | 71 | Ac-[αAllylPro]D[tBuAla][B5(22)]DDAAFL[PyrS2][3Thi][Trp(1-Me)]Q-NH2 (staple 1-4, 4-11) [I-1433]

Biological target: full-length beta-Catenin (Uniprot ID P35222) (Homo sapiens (Human)) (UniProt P35222)
Assay: fluorescence polarization competition, peptide titrated against full-length beta-catenin + 5FAM-TCF4(10-53)
Target sequence in this assay (P35222 2-781 limits assumed): as the sequence (P35222 2-781 limits assumed) above

Row | Binder | EC50 [nM]
28 | Ac-[αAllylPro]D[tBuAla][B5(4)]DDAA[Ala(4-thiazolyl)]N[PyrS2″][3Thi][Bta]Q-NH2 (staple 1-4, 4-11) [I-812] | 33
29 | Ac-[αAllylPro]D[tBuAla][B5]DDAAFN[PyrS2″][3Thi][Bta]T-NH2 (staple 1-4, 4-11) [I-814] | 7
30 | Ac-[αAllylPro]D[tBuAla][B5]DDAAFN[PyrS2″][3Thi][Bta]N-NH2 (staple 1-4, 4-11) [I-816] | 5

The next lines start with the values.

Row | EC50 [nM] | Binder
31 | 5 | Ac-[αAllylPro]D[tBuAla][B5(3)]DDAAFT[PyrS2″][3Thi][Bta]Q-NH2 (staple 1-4, 4-11) [I-809]
32 | 6 | Ac-[αAllylPro]D[tBuAla][B5(4)]DDAAFT[PyrS2″][3Thi][Bta]H-NH2 (staple 1-4, 4-11) [I-810]
33 | 7 | Ac-[αAllylPro]D[tBuAla][B5]DDAAFN[PyrS2″][3Thi][Bta][dH]-NH2 (staple 1-4, 4-11) [I-813]
34 | 5 | Ac-[αAllylPro]D[tBuAla][B5]DDAAFN[PyrS2″][3Thi][Bta]S-NH2 (staple 1-4, 4-11) [I-815]

Biological target: full-length beta-Catenin (Uniprot ID P35222) (Homo sapiens (Human)) (UniProt P35222)
Assay: fluorescence polarization competition, displacement of 5FAM-TCF4 10-53 from full-length beta-catenin
Target sequence in this assay (P35222 2-781 limits assumed): as above

Row | Binder | IC50 [nM]
35 | Ac-[αAllylPro]D[tBuAla][B5(21)]DD[Aib][Aib]FL[PyrS2″][3Thi][Bta]Q-NH2 (staple 1-4, 4-11; also: later eluting HPLC peak (staple isomer composition)) [I-1180] | 87
36 | Ac-PD[tBuAla][R5]DDAAFN[PyrS2″][3Thi][Bta]Q-NH2 (staple 4-11) [I-1182] | 144
37 | Ac-[αAllylPro]D[tBuAla][B5(4)]DDAAFL[S8][3Thi][Bta]T-NH2 (staple 1-4, 4-11) [I-1191] | 38.5
38 | Ac-[αAllylPro]D[tBuAla][B5(4)]DDAAFL[S8][Phe(2-Cl)][Bta][4TriA]-NH2 (staple 1-4, 4-11) [I-1192] | 81.5
39 | Ac-[αAllylPro]D[tBuAla][B5″]DDAAFL[S8][3Thi][Bta]H-NH2 (staple 1-4, 4-11) [I-1195] | 29.5

Now from value to binder:

Row | IC50 [nM] | Binder
40 | 297 | Ac-PD[tBuAla][R5]DDAAFL[PyrS2″][3Thi][Bta]Q-NH2 (staple 4-11) [I-1181]
41 | 94.5 | Ac-[αAllylPro]D[tBuAla][B5(4)]DDAAFL[S8][Phe(2-Cl)][Bta]S-NH2 (staple 1-4, 4-11) [I-1189]
42 | 78.5 | Ac-[αAllylPro]D[tBuAla][B5(4)]DDAAFL[S8][3Thi][Bta][4TriA]-NH2 (staple 1-4, 4-11) [I-1193]
43 | 66.5 | Ac-[αAllylPro]D[tBuAla][B5(4)]DDAAFL[S8][Phe(2-Cl)][Bta]H-NH2 (staple 1-4, 4-11) [I-1194]
44 | 85 | Ac-[αAllylPro]D[tBuAla][B5(4)]DDAAFL[S8][Phe(2-Cl)][Bta][hSer]-NH2 (staple 1-4, 4-11) [I-1196]

Biological target: full-length beta-Catenin (Uniprot ID P35222) (Homo sapiens (Human)) (UniProt P35222)
Assay: fluorescence polarization competition; full-length beta-catenin; competitor 5FAM-TCF4(10-53) probe
Target sequence in this assay (P35222 whole entry, one chain of several): as the sequence (P35222 whole entry) above

Row | Binder | EC50 [nM]
45 | Ac-[αAllylPro]D[tBuAla][B5(21)]DD[Aib][Aib]FL[PyrS2″][3Thi][Bta]Q-NH2 (staple 1-4, 4-11; also: later eluting HPLC peak (staple isomer composition)) [I-1180] | 87
46 | Ac-PD[tBuAla][R5]DDAAFN[PyrS2″][3Thi][Bta]Q-NH2 (staple 4-11) [I-1182] | 144
47 | Ac-[αAllylPro]D[tBuAla][B5(4)]DDAAFL[S8][3Thi][Bta]T-NH2 (staple 1-4, 4-11) [I-1191] | 38.5
48 | Ac-[αAllylPro]D[tBuAla][B5(4)]DDAAFL[S8][Phe(2-Cl)][Bta][4TriA]-NH2 (staple 1-4, 4-11) [I-1192] | 81.5
49 | Ac-[αAllylPro]D[tBuAla][B5″]DDAAFL[S8][3Thi][Bta]H-NH2 (staple 1-4, 4-11) [I-1195] | 29.5

The next lines start with the values.

Row | EC50 [nM] | Binder
50 | 226 | Ac-PD[tBuAla][R5]DDAAFL[PyrS2″][3Thi][Bta]Q-NH2 (staple 4-11) [I-1181]
51 | 94.5 | Ac-[αAllylPro]D[tBuAla][B5(4)]DDAAFL[S8][Phe(2-Cl)][Bta]S-NH2 (staple 1-4, 4-11) [I-1189]
52 | 78.5 | Ac-[αAllylPro]D[tBuAla][B5(4)]DDAAFL[S8][3Thi][Bta][4TriA]-NH2 (staple 1-4, 4-11) [I-1193]
53 | 66.5 | Ac-[αAllylPro]D[tBuAla][B5(4)]DDAAFL[S8][Phe(2-Cl)][Bta]H-NH2 (staple 1-4, 4-11) [I-1194]
54 | 85 | Ac-[αAllylPro]D[tBuAla][B5(4)]DDAAFL[S8][Phe(2-Cl)][Bta][hSer]-NH2 (staple 1-4, 4-11) [I-1196]
